1 molecule from paper PMC11893775 can be followed below.

For experiment [1], the target named is recombinant human furin lacking the trans-membrane domain and cytosolic tail (human) (UniProt P09958).
Experiment [2] deals with T1, recombinant kallikrein-8 (rKLK8) (UniProt O60259).
T1 sequence: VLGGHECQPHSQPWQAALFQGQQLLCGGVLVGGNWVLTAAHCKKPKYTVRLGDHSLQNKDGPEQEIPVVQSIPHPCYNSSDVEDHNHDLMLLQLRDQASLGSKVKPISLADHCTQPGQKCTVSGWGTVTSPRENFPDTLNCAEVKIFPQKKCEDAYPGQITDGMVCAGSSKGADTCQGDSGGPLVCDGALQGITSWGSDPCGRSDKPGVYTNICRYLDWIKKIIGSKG

Non-standard residues stand in square brackets, D forms with d. No end group written: not given here. Where only a bound is given, the exact number is not on record here.

UniProt P09958, sequence (P09958 108-715): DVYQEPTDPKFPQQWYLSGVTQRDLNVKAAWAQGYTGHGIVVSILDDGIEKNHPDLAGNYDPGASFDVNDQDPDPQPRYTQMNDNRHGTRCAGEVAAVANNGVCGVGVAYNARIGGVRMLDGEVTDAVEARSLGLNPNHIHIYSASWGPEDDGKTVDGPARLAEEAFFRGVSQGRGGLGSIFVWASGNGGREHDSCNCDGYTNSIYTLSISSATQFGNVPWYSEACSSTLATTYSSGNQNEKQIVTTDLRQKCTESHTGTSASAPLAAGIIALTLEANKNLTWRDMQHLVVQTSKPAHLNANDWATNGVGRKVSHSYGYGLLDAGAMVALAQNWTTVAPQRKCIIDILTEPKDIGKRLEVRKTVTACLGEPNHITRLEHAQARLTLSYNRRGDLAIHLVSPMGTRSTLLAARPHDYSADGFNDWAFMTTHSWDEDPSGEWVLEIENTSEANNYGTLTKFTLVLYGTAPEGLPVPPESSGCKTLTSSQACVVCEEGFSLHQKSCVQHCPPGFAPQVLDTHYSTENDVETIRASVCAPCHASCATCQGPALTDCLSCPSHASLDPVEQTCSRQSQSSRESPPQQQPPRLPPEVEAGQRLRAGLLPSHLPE

As for [dR][dR][dR][dR][dR][dR] [hexa-D-arginine], the IC50 of D6R for inhibition of the in vitro cleavage of the fluorogenic substrate Boc-RVRR-AMC by rFurin in experiment [1] was 780 nM. The IC50 of D6R for inhibition of the in vitro cleavage of the fluorogenic substrate Boc-VPR-AMC by rKLK8 in experiment [2] was less than 25000 nM.
